# Experimental data as given in PMC3064781 (Nucleic Acids Research, 2010).
# B1: Nep1 from Archaeoglobus fulgidus (enzyme)
# chain: MGSAFVFLEASLELIPQKIRGHPAVRADAIRRGKRPEKILLDDSKHHTAMKSLEFREKRGRPDIVHQCLLLLLDSPLRDFEVYVHTLNGEIIWVNRETRLPRNYNRFVGLMEKLFEERRITAGDTTLIEFKDVGLRDIVRGRDVLLFREKGGRFEFSELLDGDVAVCIGAFPHGDFFEETLRELGEFKEVSLGTESYTSLYVTSRVLCEYERVRAHKVG
# Target: the molecule itself
# Assay: crystal structure
protein,measurement,value
B1,binding result,binds
